Data from paper PMC10107491, “Phosphorylation of S11 in PHR1 negatively controls its transcriptional activity”.

Molecular target: PHR1 S11A-His (UniProt Q94CL7 1-409, S11A)
Test: EMSA; without SnRK1; 10 mM Tris-HCl pH 8.0, 100 mM NaCl, 10% glycerol, 2 mM DTT, 0.05% NP-40; 0.5 ug protein in 30 ul, 22 C, 30 min; 4.5% acrylamide gel, 0.5x TBE
Details: protein: recombinant; tags: His (pET28b(+)); chain copies: 2; label: 32P 5' end label on sense strand (T4 PNK); blunt

Chain of PHR1 S11A-His (Q94CL7 whole entry S11A): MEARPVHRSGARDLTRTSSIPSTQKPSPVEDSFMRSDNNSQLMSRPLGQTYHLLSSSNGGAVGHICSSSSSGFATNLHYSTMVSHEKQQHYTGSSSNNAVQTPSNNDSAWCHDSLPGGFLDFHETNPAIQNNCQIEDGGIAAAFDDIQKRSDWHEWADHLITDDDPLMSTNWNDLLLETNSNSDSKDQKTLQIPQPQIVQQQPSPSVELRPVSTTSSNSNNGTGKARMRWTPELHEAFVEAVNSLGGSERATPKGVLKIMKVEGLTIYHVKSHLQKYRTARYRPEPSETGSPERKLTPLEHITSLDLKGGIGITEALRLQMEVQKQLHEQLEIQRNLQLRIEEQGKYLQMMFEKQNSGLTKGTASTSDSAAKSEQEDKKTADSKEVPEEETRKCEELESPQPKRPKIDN

B1: AtIPS1 P1BS probe (dsDNA)
DNA 1: CAATTTTGGTAACGGCATATTCCATCGGATGATCCAAAATTCTCAAAA
DNA 2: TTTTGAGAATTTTGGATCATCCGATGGAATATGCCGTTACCAAAATTG
B1: binds.
